# Residue numbers refer to the chain shown, from its start.
# B1: L5 isolate with insertion SEQ ID NO: 430 (other)
# chain: EPKSCDKTHTCPPCPAPELLGGPSVFLFPPKPKDTLMISRTPEVTCVVVDVSHEDPEVKFNWYVDGVEVHNAKTKPREEQYNSTYRVVSVLTVLHQDWLNGKEYKCKVSNKALPAPIEKTISKAKGQPREPQVYTLPPSRDELTKNQVSLTCLVKGFYPSDIAVEWESNGGCHDPEPFCGGGQPENNYKTTPPVLDSDGSFFLYSKLTVDKSRWQQGNVFSCSVMHEALHNHYTQKSLSLSPGK
# B2: L5 isolate with insertion SEQ ID NO: 463 (other)
# chain: B1 chain with H173M, D174H, P175S, E176P, P177H, F178A
# B3: L5 isolate with insertion SEQ ID NO: 456 (other)
# chain: B1 chain with H173Y, D174P, P175Q, E176K, P177E, F178I
# B4: L5 isolate with insertion SEQ ID NO: 470 (other)
# chain: B1 chain with H173E, D174A, P175S, E176G, P177Q, F178I
# B5: L5 isolate with insertion SEQ ID NO: 446 (other)
# chain: B1 chain with H173M, D174H, P175N, P177E
# B6: L5 isolate with insertion SEQ ID NO: 459 (other)
# chain: B1 chain with H173P, D174G, P175H, P177F, F178R
# B7: L5 isolate with insertion SEQ ID NO: 464 (other)
# chain: B1 chain with H173M, D174M, P175W, E176K, P177V, F178N
# B8: L5 isolate with insertion SEQ ID NO: 495 (other)
# chain: B1 chain with H173L, D174M, P175S, E176Q, P177D, F178L
# B9: L5 isolate with insertion SEQ ID NO: 444 (other)
# chain: B1 chain with D174A, E176Q, P177W, F178E
# B10: L5 isolate with insertion SEQ ID NO: 492 (other)
# chain: B1 chain with H173M, D174M, P175R, P177Q, F178G
# B11: L5 isolate with insertion SEQ ID NO: 432 (other)
# chain: B1 chain with H173D, D174R, E176V, P177W
# B12: L5 isolate with insertion SEQ ID NO: 479 (other)
# chain: B1 chain with H173M, D174F, P175S, E176H, F178H
# B13: L5 isolate with insertion SEQ ID NO: 452 (other)
# chain: B1 chain with H173W, D174M, P175W, E176A, P177E, F178E
# B14: L5 isolate with insertion SEQ ID NO: 461 (other)
# chain: B1 chain with H173K, D174W, P175S, E176M, P177T, F178K
# B15: L5 isolate with insertion SEQ ID NO: 445 (other)
# chain: B1 chain with H173P, D174L, P175V, E176R, P177A, F178D
# B16: L5 isolate with insertion SEQ ID NO: 475 (other)
# chain: B1 chain with H173L, D174G, P175L, E176R, P177Q, F178E
# B17: L5 isolate with insertion SEQ ID NO: 484 (other)
# chain: B1 chain with H173Y, D174A, P175S, E176P, P177H, F178E
# B18: L5 isolate with insertion SEQ ID NO: 462 (other)
# chain: B1 chain with H173D, D174W, P175H, E176R, P177M, F178K
# B19: L5 isolate with insertion SEQ ID NO: 439 (other)
# chain: B1 chain with D174H, P175K, E176Q, P177D, F178Q
# B20: L5 isolate with insertion SEQ ID NO: 443 (other)
# chain: B1 chain with H173S, D174R, P175V, E176F, P177K, F178Y
# B21: L5 isolate with insertion SEQ ID NO: 489 (other)
# chain: B1 chain with H173Q, D174P, P175Q, E176A, P177S, F178W
# B22: L5 isolate with insertion SEQ ID NO: 436 (other)
# chain: B1 chain with H173A, D174E, P175R, E176Q, P177Y, F178Y
# B23: L5 isolate with insertion SEQ ID NO: 453 (other)
# chain: B1 chain with H173V, D174H, P175N, E176D, P177K, F178L
# B24: L5 isolate with insertion SEQ ID NO: 441 (other)
# chain: B1 chain with H173E, D174A, P175T, E176M, P177T, F178W
# B25: L5 isolate with insertion SEQ ID NO: 486 (other)
# chain: B1 chain with H173D, D174T, P175I, E176G, P177W
# B26: L5 isolate with insertion SEQ ID NO: 434 (other)
# chain: B1 chain with H173M, D174P, P175Y, P177M, F178H
# B27: L5 isolate with insertion SEQ ID NO: 478 (other)
# chain: B1 chain with H173D, D174L, E176N, P177E, F178M
# B28: L5 isolate with insertion SEQ ID NO: 482 (other)
# chain: B1 chain with H173M, D174G, P175W, E176W, P177H, F178L
# B29: L5 isolate with insertion SEQ ID NO: 447 (other)
# chain: B1 chain with H173M, D174F, P175E, E176T, P177K, F178W
# B30: L5 isolate with insertion SEQ ID NO: 480 (other)
# chain: B1 chain with H173A, D174G, E176Y, P177W, F178A
# B31: L5 isolate with insertion SEQ ID NO: 491 (other)
# chain: B1 chain with C172S, H173Q, D174R, P175A, E176P, P177A, F178S
# B32: L5 isolate with insertion SEQ ID NO: 435 (other)
# chain: B1 chain with H173K, D174R, P175E, E176N, F178Y
# B33: L5 isolate with insertion SEQ ID NO: 496 (other)
# chain: B1 chain with H173G, D174G, E176Y, P177V
# B34: L5 isolate with insertion SEQ ID NO: 481 (other)
# chain: B1 chain with H173E, D174Q, P175Q, E176F, P177V, F178T
# B35: L5 isolate with insertion SEQ ID NO: 431 (other)
# chain: B1 chain with H173N, D174E, E176K, P177Y, F178V
# B36: L5 isolate with insertion SEQ ID NO: 451 (other)
# chain: B1 chain with H173N, D174L, P175G, E176H, P177M, F178P
# B37: L5 isolate with insertion SEQ ID NO: 488 (other)
# chain: B1 chain with H173G, D174P, P175Y, E176K, P177T, F178E
# B38: L5 isolate with insertion SEQ ID NO: 433 (other)
# chain: B1 chain with H173E, D174I, E176H, P177S
# B39: L5 isolate with insertion SEQ ID NO: 487 (other)
# chain: B1 chain with H173G, D174I, P175F, P177S, F178W
# B40: L5 isolate with insertion SEQ ID NO: 485 (other)
# chain: B1 chain with H173M, D174P, E176Q, P177W, F178M
# B41: L5 isolate with insertion SEQ ID NO: 493 (other)
# chain: B1 chain with H173L, D174L, E176N, P177M
# B42: L5 isolate with insertion SEQ ID NO: 450 (other)
# chain: B1 chain with H173Q, D174T, P175S, E176M, P177K, F178N
# B43: L5 isolate with insertion SEQ ID NO: 494 (other)
# chain: B1 chain with H173C, D174P, P175V, E176Y, P177Q, F178H
# B44: L5 isolate with insertion SEQ ID NO: 438 (other)
# chain: B1 chain with H173K, D174S, P175M, E176I, P177S, F178M
# B45: L5 isolate with insertion SEQ ID NO: 477 (other)
# chain: B1 chain with H173Q, D174Q, P175I, E176K, P177E, F178W
# B46: L5 isolate with insertion SEQ ID NO: 483 (other)
# chain: B1 chain with H173P, D174Q, P175H, E176G, P177E, F178M
# B47: L5 isolate with insertion SEQ ID NO: 449 (other)
# chain: B1 chain with H173L, D174Q, P175N, E176L, P177Y, F178V
# Molecular target: T1, human neonatal Fc receptor (hFcRn) (human, UniProt P55899 24-290; P61769 21-119)
# T1 construct: Biotinylated in the ELISA, Octet and yeast assays; also called human FcRn; huFcRn
# Experiment: phage ELISA pH 6
# Method: (§1) Approximately 100 μL of biotinylated human FcRn at 2 μg/mL was added to the wells of MAXISORP™ plates coated with 10 μg/mL streptavidin. After washing with PBS plus 0.05% Tween 20 (PBST) five times, phage from the overnight cultures in MES buffer at pH 6.0 or pH 7.4 were added to the plates and incubated at room temperature for 1 hr. A horseradish peroxidase (HRP)-conjugated anti-M13 antibody was used to detect the binding phage, and the plates were scored by a microtiter plate reader using a wavelength in the visible range.
# (§2) Binding was assessed by a quantitative enzyme-linked immunoadsorbent assay (ELISA). The ELISA scores reflect binding affinity, with higher scores meaning higher affinity. Typically, scores higher than about 3˜5 indicate binding above background. For library L5, the insertions are between the N169 and G170 according to the numbering in FIG. 2. For libraries 6A and 6B, the insertions are between L143 and T144 according to the numbering in FIG. 2.
# 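Also: higher score means stronger binding and above about 3 to 5 exceeds background.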
# T1 sequence (P55899 24-290 limits assumed, chain 1 of 2): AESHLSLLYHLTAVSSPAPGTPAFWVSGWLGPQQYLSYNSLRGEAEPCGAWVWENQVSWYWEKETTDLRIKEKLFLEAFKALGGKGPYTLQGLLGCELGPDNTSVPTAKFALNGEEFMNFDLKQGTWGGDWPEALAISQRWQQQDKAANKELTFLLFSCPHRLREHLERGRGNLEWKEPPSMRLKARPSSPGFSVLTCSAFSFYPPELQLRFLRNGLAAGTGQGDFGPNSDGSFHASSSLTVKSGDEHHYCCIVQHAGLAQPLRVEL
# T1 sequence (P61769 21-119 limits assumed, chain 2 of 2): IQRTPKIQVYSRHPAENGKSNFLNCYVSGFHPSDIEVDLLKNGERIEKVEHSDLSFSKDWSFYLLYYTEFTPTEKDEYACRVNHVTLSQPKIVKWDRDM
row,Binder,ELISA score
1,B1,57.7
2,B2,46.8
3,B3,49.8
4,B4,42.4
5,B5,53.2
6,B6,48.2
7,B7,46.2
8,B8,21.5
9,B9,53.2
10,B10,23.9
11,B11,57.7
12,B12,35.8
13,B13,50.5
14,B14,47.2
15,B15,53.2
16,B16,41.1
17,B17,27.7
18,B18,47
19,B19,54.9
20,B20,54.2
21,B21,25.2
22,B22,55.5
23,B23,50.3
24,B24,54.7

row,Binder,ELISA score
1,B25,26.9
2,B26,56.7
3,B27,36.1
4,B28,29.5
5,B29,52.4
6,B30,33.7
7,B31,24.9
8,B32,55.6
9,B33,21.3
10,B34,31.1
11,B35,57.7
12,B36,51.1
13,B37,26.1
14,B38,57.2
15,B39,26.3
16,B40,27.5
17,B41,22
18,B42,51.3
19,B43,21.7
20,B44,55.2
21,B45,38.7
22,B46,28.4
23,B47,51.6

# Molecular target: T1, human neonatal Fc receptor (hFcRn)
# Experiment: phage ELISA pH 7.4
# Method: as §1, §2
row,Binder,ELISA score
1,B1,0.4
2,B2,3.6
3,B3,0.6
4,B4,1.6
5,B5,0.4
6,B6,1.8
7,B7,0.9
8,B8,1
9,B9,0.3
10,B10,1.5
11,B11,0.5
12,B12,0.7
13,B13,1
14,B14,0.9
15,B15,0.4
16,B16,1.6
17,B17,1
18,B18,1.4
19,B19,0.6
20,B20,0.7
21,B21,0.7
22,B22,1.4
23,B23,0.4
24,B24,0.6

row,Binder,ELISA score
1,B25,1.4
2,B26,0.4
3,B27,1
4,B28,1.2
5,B29,1.2
6,B30,0.7
7,B31,1.2
8,B32,0.7
9,B33,1.4
10,B34,0.8
11,B35,0.5
12,B36,0.4
13,B37,0.9
14,B38,0.7
15,B39,0.7
16,B40,2.1
17,B41,1
18,B42,0.2
19,B43,0.3
20,B44,0.2
21,B45,1.6
22,B46,0.5
23,B47,0.4
